Experiments:
LRH-1 = LRH-1 (Homo sapiens, UniProt O00482 O00482:1-541); experiment: EMSA; conditions as Example 4; competed by 10x and 50x unlabeled wild type; conditions: protein: synthetic; tags: synthesized in vitro from human LRH-1 expression plasmid; label: 32P
PPARγ/RXRα heterodimer = PPARγ/RXRα heterodimer (Homo sapiens, UniProt P37231;P19793 P37231:1-505,P19793:1-462); experiment: EMSA; poly(dI-dC), 25 C 20 min then 4 C 15 min; band when both PPARγ and RXRα present; competed by 10x and 50x unlabeled wild type; conditions: tags: TNT T7 Quick Coupled (Promega); label: 32P
PPARγ/RXRα heterodimer, sequence (P37231 whole entry, chain 1 of 2): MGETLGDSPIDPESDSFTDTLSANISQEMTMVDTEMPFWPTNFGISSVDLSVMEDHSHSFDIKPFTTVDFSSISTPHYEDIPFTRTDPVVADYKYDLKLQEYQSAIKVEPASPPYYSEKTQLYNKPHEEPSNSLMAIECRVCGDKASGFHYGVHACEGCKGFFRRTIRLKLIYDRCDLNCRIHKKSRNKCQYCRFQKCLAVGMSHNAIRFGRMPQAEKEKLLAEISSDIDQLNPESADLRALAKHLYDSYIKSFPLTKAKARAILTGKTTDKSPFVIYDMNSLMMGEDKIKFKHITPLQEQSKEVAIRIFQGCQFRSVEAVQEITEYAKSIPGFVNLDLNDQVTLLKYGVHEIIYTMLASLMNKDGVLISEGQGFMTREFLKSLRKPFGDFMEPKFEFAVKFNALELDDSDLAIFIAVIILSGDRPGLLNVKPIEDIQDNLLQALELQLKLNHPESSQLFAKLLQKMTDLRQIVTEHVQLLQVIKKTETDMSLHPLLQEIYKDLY
PPARγ/RXRα heterodimer, sequence (P19793 whole entry, chain 2 of 2): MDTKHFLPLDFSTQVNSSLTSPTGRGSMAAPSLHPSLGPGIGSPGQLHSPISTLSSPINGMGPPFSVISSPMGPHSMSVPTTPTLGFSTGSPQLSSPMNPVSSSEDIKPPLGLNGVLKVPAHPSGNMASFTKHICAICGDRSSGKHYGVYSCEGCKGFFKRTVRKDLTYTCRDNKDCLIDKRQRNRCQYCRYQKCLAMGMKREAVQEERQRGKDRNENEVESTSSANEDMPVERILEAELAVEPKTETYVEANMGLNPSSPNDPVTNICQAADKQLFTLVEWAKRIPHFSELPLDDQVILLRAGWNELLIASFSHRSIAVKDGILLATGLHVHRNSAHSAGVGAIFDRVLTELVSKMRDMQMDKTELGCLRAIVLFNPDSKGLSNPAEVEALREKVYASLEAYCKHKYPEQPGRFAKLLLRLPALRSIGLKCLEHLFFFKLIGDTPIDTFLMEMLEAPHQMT

LRH-1, sequence (O00482 whole entry, one chain of several): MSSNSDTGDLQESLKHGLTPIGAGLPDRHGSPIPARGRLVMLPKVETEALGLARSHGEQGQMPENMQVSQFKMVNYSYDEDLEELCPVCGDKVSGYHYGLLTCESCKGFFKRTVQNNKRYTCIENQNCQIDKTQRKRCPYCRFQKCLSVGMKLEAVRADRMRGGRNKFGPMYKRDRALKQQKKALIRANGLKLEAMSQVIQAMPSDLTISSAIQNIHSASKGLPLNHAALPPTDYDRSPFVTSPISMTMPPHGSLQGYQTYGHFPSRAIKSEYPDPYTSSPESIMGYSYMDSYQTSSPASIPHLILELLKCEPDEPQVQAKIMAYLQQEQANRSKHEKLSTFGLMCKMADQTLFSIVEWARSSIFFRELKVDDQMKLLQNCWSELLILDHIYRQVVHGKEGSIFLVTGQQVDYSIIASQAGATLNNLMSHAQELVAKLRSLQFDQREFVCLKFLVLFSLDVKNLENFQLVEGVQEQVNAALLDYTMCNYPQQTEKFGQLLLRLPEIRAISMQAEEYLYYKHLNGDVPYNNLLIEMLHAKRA

B1: adiponectin LRH-RE probe (-245 to -221) (dsDNA)
DNA 1: AATAAGGGTCAAGGCCTGGAAACAC
DNA 2: GTGTTTCCAGGCCTTGACCCTTATT
B1: binds (LRH-1).

B2: adiponectin PPRE probe (-291 to -267) (dsDNA)
DNA 1: TGGTTTTGACTTTTGCCCCATCTTC
DNA 2: GAAGATGGGGCAAAAGTCAAAACCA
B2: binds (PPARγ/RXRα heterodimer).
